In patent US20080213265A1 (INSTITUTE FOR RESEARCH IN BIOMEDICINE, published 2008):

T1: HA-tagged UL128Δ1-27 hCMV protein expressed in HEK293T cells (human cytomegalovirus (hCMV), UniProt P16837 28-171)
T1 construct: mature; not shown: hemagglutinin (HA) tag
T1 sequence: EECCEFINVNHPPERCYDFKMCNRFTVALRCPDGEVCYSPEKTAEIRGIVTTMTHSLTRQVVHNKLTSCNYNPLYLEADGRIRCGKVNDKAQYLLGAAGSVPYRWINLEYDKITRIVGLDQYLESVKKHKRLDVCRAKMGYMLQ


Legend:
[1] = target: UL130/UL131A of a clinical hCMV isolate (virus used in the neutralisation assay) (human cytomegalovirus (hCMV), UniProt P16772 26-214); assay: cell-based or functional assay
[2] = target: T1, HA-tagged UL128Δ1-27 hCMV protein …; assay: FACS staining of fixed, permeabilized transfected HEK293T cells
[3] = target: T2, HA-tagged UL130Δ1-25 hCMV protein expressed alone in HEK293T cells (human cytomegalovirus (hCMV), UniProt P16772 26-214); assay: as above
T2 construct: mature; not shown: hemagglutinin (HA) tag

| Binder | 50% neutralisation (µg/ml), Endothelial cells [1] | 50% neutralisation (µg/ml), Fibroblasts [1] | binding result [2] | binding result [3] |
| --- | --- | --- | --- | --- |
| human monoclonal antibody 1F11 (antibody, V domains shown, Human IgG from an EBV-immortalised B cell clone) VH: QVQLVESGGGVVQPGRSVRLSCVASGFTFSSYAMHWVRQAPGKGLEWVSLISFDGDNKYYADSVRGRFTISRDSSQKTLFLQMNSLRVEDTAIYYCAREELVGLMPPYYNYGLDVWGQGTTVTVSS VL: QSVLTQPPSVSAAPGQKVTISCSGSSSNIGNNFVSWYQQLPGTAPKLLIYDNDRRPSGIPDRFSGSKSDTSATLVITGLQTGDEADYYCETWDGSLNPAVVFGGGTRLTVL | 0.001 µg/mL | > 2 µg/mL | no binding | no binding |
| human monoclonal antibody 2F4 (antibody, V domains shown, Human IgG from an immortalised B cell clone) VH: QVQLVESGGGVVQPGRSLRLSCAASGFSFNTYGMHWVRQAPGKGLEWVAVIWDDGSKMYHADSVKGRFTISRDNSKNTLYLQMNSLRAEDTAVYYCARDEGAIMLHAMTDYGLDVWGQGTTVTV VL: SYELTQPPSVSVSPGQTATITCSGDNLGDEFACWYQQKPGQSPVLVIYQDSKRPSGIPERFSGSSSGNTATLTIRGTQAMDEADYYCQAWDSSTAHYVFGTGTKVTVL | 0.003 µg/mL | > 2 µg/mL | no binding | no binding |
| human monoclonal antibody 5A2 (antibody, V domains shown, Human IgG from an immortalised B cell clone) VH: QVQLVQSGAEVRKPGSSVKVSCKASGGTFSSYVIHWVRQAPGQGLEWMGGIIPIFNTANYAQKVQGRVTITADESTSTAYMELSSLRSEDTAIYYCARDFLSGPMEMPGGYYGLDVWGQGTTVTVSS VL: not shown | 0.002 µg/mL | > 2 µg/mL | no binding | no binding |
